Substitutions are numbered along the chain they refer to.
T1: IL-11 (Cat. 12225-HNCE, Sino Biological Inc.) (UniProt P20809 22-199, limits assumed)
T1 sequence (looked up): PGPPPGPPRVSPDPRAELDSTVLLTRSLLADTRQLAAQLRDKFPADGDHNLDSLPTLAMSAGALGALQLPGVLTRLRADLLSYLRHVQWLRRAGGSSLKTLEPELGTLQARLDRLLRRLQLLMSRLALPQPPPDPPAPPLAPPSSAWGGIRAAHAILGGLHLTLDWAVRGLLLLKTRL

T2: human IL-11 (AAH12506.1, Pro22-Leu199) (human, UniProt P20809 22-199)
T2 construct: The range Pro22-Leu199 counts on AAH12506.1; The Octet runs say only 'human IL-11'; also called hIL-11
T2 chain: T1 sequence (looked up) with H154L

B1: hz8C8-VHm1 + hz8C8-VLm5 (antibody, human IgG1, kappa, V domains shown)
VH: EVQLVESGGGLVQPGGSLRLSCAASGFTFSSFGMHWVRQAPGKGLEWVAYITPGSNTIYYADTVKGRFTISRDNAKNSLYLQMNSLRAEDTAVYYCAREYYSYDEGFAYWGQGTLVTVSS
VL: EIVLTQSPATLSLSPGERATLSCSVSELLSTNYLHWYQQKPGQAPRLLIYRTSNLASGIPARFSGSGSGTDFTLTISSLEPEDFAVYYCQQGVDVPFTFGQGTKLEIKR
notes: human IgG1 constant regions
B2: hz8C8-VHm1 + hz8C8-VLm7-m4 (antibody, human IgG1, kappa, V domains shown)
VH: B1 VH
VL: B1 VL with E27D, L29I, S30P, T31S, N32Q, L55R
notes: human IgG1 constant regions
B3: hz8C8-VHm1-m1 + hz8C8-VLm7 (antibody, human IgG1, kappa, V domains shown)
VH: B1 VH with F32Y
VL: B1 VL with E27D, L29I, S30P, T31S, N32Q
notes: human IgG1 constant regions
B4: hz8C8-VHm1-m3 + hz8C8-VLm7-m2 (antibody, human IgG1, kappa, V domains shown)
VH: B1 VH with Y101S
VL: B1 VL with E27D, L29I, S30P, T31S, N32Q, R51D, T52A
notes: human IgG1 constant regions
B5: hz8C8-VHm1 + hz8C8-VLm8 (antibody, human IgG1, kappa, V domains shown)
VH: B1 VH
VL: B1 VL with E27D, L29I, S30P, T31S, N32Q, H35S
notes: human IgG1 constant regions
B6: hz8C8-VHm1 + hz8C8-VLm6 (antibody, human IgG1, kappa, V domains shown)
VH: B1 VH
VL: B1 VL with E27S, L29I, S30P, T31S, N32K
notes: human IgG1 constant regions
B7: hz8C8-VHm1-m2 + hz8C8-VLm7 (antibody, human IgG1, kappa, V domains shown)
VH: B1 VH with Y50S
VL: B1 VL with E27D, L29I, S30P, T31S, N32Q
notes: human IgG1 constant regions
B8: hz8C8-VHm1 + hz8C8-VLm7-m3 (antibody, human IgG1, kappa, V domains shown)
VH: B1 VH
VL: B1 VL with E27D, L29I, S30P, T31S, N32Q, R51G, T52A
notes: human IgG1 constant regions
B9: hz8C8-VHm1-m4 + hz8C8-VLm7-m2 (antibody, human IgG1, kappa, V domains shown)
VH: B1 VH with A49S
VL: B1 VL with E27D, L29I, S30P, T31S, N32Q, R51D, T52A
notes: human IgG1 constant regions
B10: hz8C8-VHm1 + hz8C8-VLm9 (antibody, human IgG1, kappa, V domains shown)
VH: B1 VH
VL: B1 VL with E27D, L29I, S30P, T31S, N32Q, H35A
notes: human IgG1 constant regions
B11: hz8C8-VHm1-m3 + hz8C8-VLm7 (antibody, human IgG1, kappa, V domains shown)
VH: B1 VH with Y101S
VL: B1 VL with E27D, L29I, S30P, T31S, N32Q
notes: human IgG1 constant regions
B12: hz8C8-VHm1-m3 + hz8C8-VLm7-m3 (antibody, human IgG1, kappa, V domains shown)
VH: B1 VH with Y101S
VL: B1 VL with E27D, L29I, S30P, T31S, N32Q, R51G, T52A
notes: human IgG1 constant regions
B13: hz8C8-VHm1-m3 + hz8C8-VLm7-m1 (antibody, human IgG1, kappa, V domains shown)
VH: B1 VH with Y101S
VL: B1 VL with E27D, L29I, S30P, T31S, N32Q, T52A
notes: human IgG1 constant regions
B14: hz8C8-VHm1 + hz8C8-VLm7-m1 (antibody, human IgG1, kappa, V domains shown)
VH: B1 VH
VL: B1 VL with E27D, L29I, S30P, T31S, N32Q, T52A
notes: human IgG1 constant regions
B15: hz8C8-VHm1-m5 + hz8C8-VLm7-m2 (antibody, human IgG1, kappa, V domains shown)
VH: B1 VH with W47Y
VL: B1 VL with E27D, L29I, S30P, T31S, N32Q, R51D, T52A
notes: human IgG1 constant regions
B16: hz8C8-VHm1 + hz8C8-VLm7 (antibody, human IgG1, kappa, V domains shown)
VH: B1 VH
VL: B1 VL with E27D, L29I, S30P, T31S, N32Q
notes: human IgG1 constant regions; also called hz8C8m7
B17: hz8C8-VHm1 + hz8C8-VLm7-m2 (antibody, human IgG1, kappa, V domains shown)
VH: B1 VH
VL: B1 VL with E27D, L29I, S30P, T31S, N32Q, R51D, T52A
notes: human IgG1 constant regions
B18: hz8C8-VHm1-m3 + hz8C8-VLm7-m4 (antibody, human IgG1, kappa, V domains shown)
VH: B1 VH with Y101S
VL: B1 VL with E27D, L29I, S30P, T31S, N32Q, L55R
notes: human IgG1 constant regions

How the values were obtained:
[1] = biological target: T1, IL-11 (Cat. 12225-HNCE, Sino Biological …); assay: cell-based or functional assay
[2] = biological target: T1, IL-11 (Cat. 12225-HNCE, Sino Biological …); assay: competition ELISA, IL-11/IL-11Rα/GP130 complex
Experimental: The activity of the recombinant murine anti-IL-11 antibodies for blocking the formation of IL-11/IL-11Rα/GP130 complex was analyzed via competition ELISA. IL-11Rα-His (NP_004503.1, Met1-Val363, C-terminus-6-His Tag) was firstly added into ELISA plates to be coated overnight. Next day, samples were prepared as follows. […] After co-incubating and washing, an HRP conjugated anti-human Fc secondary antibody was added to develop the color which was then detected.
(§1) Then, light and heavy chain expression vectors for preparing mutant antibodies were constructed according to the method for preparing the recombinant antibodies provided in Example 4, using the mutant sequences shown in Table 3 which accordingly were linked with human IgG1 constant regions (SEQ ID NO. 13, and SEQ ID NO.14). Subsequently, the light chain and the heavy chain were reasonably matched and co-transfected into eukaryotic cells for transient expression, and then recombination protein samples of the mutant antibodies were obtained through affinity purification. The samples obtained were tested for affinity on Fortebio Octet, according to the method for measuring affinity provided in Example 1. Further, using the protocol provided in Example 3, hz8C8 and its affinity matured mutants were analyzed for their activity for blocking the formation of IL-11/IL-11Rα/GP130 complex.

[3] = biological target: T2, human IL-11 (AAH12506.1, Pro22-Leu199); assay: BLI (Octet), antibody captured, human IL-11 in solution
Experimental: The affinity of the murine antibodies purified from the hybridoma supernatants was determined using an Octet QKe System instrument from Fortebio Inc. with an anti-mouse IgG Fc Capture biosensor to capture the Fc fragments of the antibodies, for which an anti-IL-11 antibody named “3C6-mFc” recombinantly expressed was used at the same concentration as a positive control. Specifically, a hybridoma supernatant was diluted with HBS-EP+ buffer (GE), and was allowed to pass through the surface of AMC probes (Cat: 18-5088, PALL), and so the antibody in the hybridoma supernatant was captured on the surface of the probes; then, human IL-11 diluted in the HBS-EP+ buffer (300 nM) was used as a mobile phase to react with the antibody captured on the surface of the probes. Both the binding and the dissociating were conducted for 300 seconds. When the experiment was finished, data from which response values of blank controls had been deducted was fitted using a 1:1 Langmuir binding model by software, and then kinetic constants for antigen-antibody binding were calculated. Binding signals were detected on the Octet QKe System instrument with Hy5C2, Hy8C8, Hy16B5, Hy18A10, and Hy18H10.
The affinity of hz18A10 and hz8C8 was determined according to the method provided in Example 1 using AHC bioprobes for capturing human Fc fragment instead, with other conditions unchanged. A recombinantly expressed anti-IL-11 antibody 3C6-hFc was used at the same concentration as a positive control.
as §1, with “1.” for “1. Further, using the protocol provided in Example 3, hz8C8 and its affinity matured mutants were analyzed for their activity for blocking the formation of IL-11/IL-11Rα/GP130 complex.”

Binder	Blocking activity (IC50), STAT3-luc reporter [1] [µg/mL]	IC50 [2] [µg/mL]	Kd [3] [nM]	koff [3] [s⁻¹]	kon [3] [M⁻¹ s⁻¹]
B1	0.1	0.838	0.479	0.000406	848000
B2	0.021	0.69	0.178	0.000178	1e+06
B3	0.046	0.75	0.125	0.00013	1.04e+06
B4	0.009	0.67	< 0.001	< 1e-07	945000
B5	0.01	0.7	0.0313	2.97e-05	948000
B6	0.076	1.01	0.0412	2.23e-05	543000
B7	0.052	1.68	3.41	0.00355	1.04e+06
B8	0.017	0.73	0.0795	8.99e-05	1.13e+06
B9	0.004	0.79	< 0.001	< 1e-07	879000
B10	0.012	0.72	0.0354	3.45e-05	975000
B11	0.053	0.83	0.0987	0.00011	1.12e+06
B12	0.022	0.78	< 0.001	< 1e-07	972000
B13	0.01	0.55	0.0609	5.81e-05	954000
B14	0.068	0.58	0.13	0.000136	1.05e+06
B15	0.194	0.52	0.0594	4.05e-05	683000
B16	0.017	0.85	0.00429	3.52e-06	822000
B17	0.024	0.74	0.0347	3.7e-05	1.07e+06
B18	0.02	0.47	< 0.001	< 1e-07	901000

Source: patent US20250197488A1 (MABWELL SHANGHAI BIOSCIENCE, published 2025)
